Measured values reported in PMC5508133.

Molecular target: PfEMP1B (GFP-tagged minimal PfEMP1 construct) (P. falciparum)
Assay: co-IP; GFP-Trap on parasite lysates crosslinked with increasing concentrations of DSP; 1% Triton X-100, 150 mM NaCl, 50 mM Tris-HCl pH 7.4; western blot of eluates

B1: ring-exported protein-1 (REX1) (natural protein)
chain: MADYSSNEEETPKEEKKISKLEDMQSPFDYKRFFRKYTIFAPFILVYFTLMFFVNSTVQNGTMLLNSIKENANSKLPALLWNKIIGKGNDNEVNFEDKKMIEGNKSGNGEEHNKHKRRQVDNQEDDYDVDEYGNPKSGAPYKSEEEHAEQQNYYGEHHGDYEDKNEYHGKSNIENNKDFPEQGQKDEEKEKEAKKKAEEFEKRKQLHEEEKRKARETQQALHKKLQEQLQRLKEQEKKKVEHQKLIHKIKTQGDVDPAVQKVLNKYNQKEKDEEQQILKIRDLQVQLRHIQQRIQSLKSTNNGQPKTKDEYLQLKDLQKEYYDKEQDEQNMIEHLEHLQGEMQYLYEELQIVYDENQAKTAQAKDEQHELKPQAEKDASKLTTTYDQTKEVKPQAEKDASKLTTTYDQTKEVKPQAEKDASKLTTTYDQTKEVKPQAEKDALAKTENQNGELLPQAEKDASKLTTTYDQTKEVKPQAEKDALAKTENQNGELLPQAEKDASKLTTTYDQTKEVKPQAEKDALAKTENQNGELLPQAEKDASKLTTTYDQTKEVKPQAEKDALAKTENQSGELLTQAEKDALAKKESEAPKGSSTSDKNTTENQLNAEAQSEVKPQWQKDYWKSKNESQTETNNTWKKDSWKKKTEEQQNAEAQQEVKSPYEKYSYNKETKPQNDKYTLNKEVKPQNEKYTYNQKVKAENTESEKSLLESSVFN
**Q.** B1 was tested. Which fold increase of pull-down in the presence of DSP did it give?
**A.** > 10 fold
